The target in the test is T1, recombinant mature human OSCP (human, UniProt P48047 24-213).
T1 construct: human F-ATP synthase subunit OSCP, mature protein
T1 sequence (looked up): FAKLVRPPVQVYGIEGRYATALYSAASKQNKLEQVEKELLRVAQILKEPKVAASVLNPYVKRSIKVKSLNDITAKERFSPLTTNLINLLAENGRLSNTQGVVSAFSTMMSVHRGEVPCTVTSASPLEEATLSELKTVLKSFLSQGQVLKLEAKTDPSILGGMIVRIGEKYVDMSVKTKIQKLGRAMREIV
The test can be described thus: SPR; Biacore T100, CM5 chip, CyPD immobilized by amine coupling (800-1200 RU); OSCP injected at increasing concentrations; Langmuir interaction model. Conditions: both partners purified. In general terms: SPR reads the build-up and loss of mass on a sensor chip optically.

B1: purified recombinant human cyclophilin D (enzyme)
chain: not shown
notes: human cyclophilin D, cDNA from a human placenta library; called 'recombinant mature human' for the SPR; also called CyPD; CypD; source: E. coli BL21(DE3)pLysS (plasmid pSUMO-Cyclophilin D), purified
Consider B1, for which the binding result is “binds”.

The values are drawn from paper PMC9751095, “The mitochondrial chaperone TRAP1 regulates F-ATP synthase channel formation” (Cell Death and Differentiation, 2022).
